Measurements reported in article PMC6774396 (Frontiers in Immunology, 2019).
Changes are numbered by the printed parent chain. In names and notes the source's numbering stands.

Experiments:
[1] = tested on: THP-1 cells over TNF-α-activated HUVEC; assay: L-selectin-GFP/RFP clustering in mid-TEM under flow, FLIM/FRET; assay type: cell-based, human
Procedure: (A) Line scanning confocal microscopic image of THP-1 cells, stably expressing GFP, captured in mid-TEM—following 15 min of perfusion over TNF-α-activated HUVEC monolayers. […] “Top” and “Base,” respectively, represent the apical and basolateral aspect of the endothelium (x63 objective lens, Leica SP5). Scale bar = 24 μm. (B,C) THP-1 cells expressing WT, SSAA, or SSDD L-selectin-GFP/RFP were perfused over TNF-α-activated HUVEC and fixed after 15 min of perfusion. […] Lifetime images taken of at least 45 cells and analyzed over 3 independent experiments was quantified and expressed as FRET efficiency. Images representative of three independent experiments, where at least 45 cells of each group was analyzed at two optical sections, Top and Base, as indicated in the cartoon of a yellow monocyte captured in mid-TEM crossing a red endothelium. Individual GFP channel and lifetime images are provided for each cell line. The lifetime of fluorescence is expressed in a pseudocolour scale from red (low lifetime with a very high probability of interaction) to blue (high lifetime with a very low probability of interaction). Statistics: unpaired student t-test ***p ≤ 0.001.
Cells expressing WT L-selectin-GFP/RFP were treated for 30 min with 10 μM TAPI-0 and subsequently perfused over TNF-activated HUVEC monolayers for 15 min prior to fixation and analysis for FRET by FLIM (see Materials and Methods for more detail). […] (B) Images representative of three independent experiments, where at least 45 cells of each group were analyzed at two optical sections–non-transmigrated uropods (Top) and transmigrated pseudopods (Base). GFP fluorescence channel and lifetime images are provided for each cell line. The lifetime of fluorescence is expressed in a pseudocolour scale from red (low lifetime with a very high probability of interaction) to blue (high lifetime with a very low probability of interaction). […]
FLIM measurement of FRET was performed with a multiphoton microscope system as described previously ([8], [23]). […] Fluorescence lifetime imaging capability was provided by time-correlated, single-photon counting electronics (SPC 700; Becker & Hickl). […] Data were analyzed as previously described ([65]). The FRET efficiency is related to the molecular separation of donor and acceptor and the fluorescence lifetime of the interacting fraction by: […]
where ηFRET is the FRET efficiency, R0 is the Förster radius, r is the molecular separation, τFRET is the lifetime of the interacting fraction and τd is the lifetime of the donor in the absence of an acceptor. The donor- only control is used as the reference against which all of other lifetimes are calculated in each experiment. τFRET and τd can also be taken to be the lifetime of the interacting fraction and non-interacting fraction, respectively. […]

[2] = target: moesin FERM domain, 1-297 (UniProt P26038); assay: SPR competition assay
[3] = tested on: THP-1 cells over TNF-α-activated HUVEC; assay: Pseudopod protrusion scoring in TEM under flow; assay type: cell-based, human
Procedure: (A) The number of protrusions formed over this period was scored as: zero, one, two, or >2. (B) The percentages of cells bearing these protrusions were scored at specific time points: 6 min (blue bars), 15 min (green bars), or 25 min (red bars). Supplementary Videos 2, 3, 4 provide examples of cells producing a range of protrusions as TEM proceeds. Data represent SEM of 3 fields of view per flow experiment, conducted on three separate occasions, and at least 180 cells analyzed per group. Values of the vertical lines indicate the differences in protrusion number (specifically “zero” and “two”) corresponding to each of the cell lines, for which statistical significance is shown in Table 1.
All flow experiments were performed using a 35 mm diameter Glycotech parallel plate flow chamber. Perfusion experiments were performed at 1.5 dyn/cm^2 using a Harvard Apparatus 2000 PHD syringe pump. Perfusion media consisted of: RPMI supplemented with L-glutamine, 10% FCS, 1% penicillin/streptomycin, 50 μM β-mercaptoethanol, and 25 mM HEPES. Human Umbilical Vein Endothelial Cells (HUVEC–Lonza) were seeded onto 35 mm diameter glass coverslips (no. 1 thickness; VWR) that were pre-coated with 10 μg/mL fibronectin (37°C for at least 1 h). Before each perfusion assay, HUVEC were stimulated overnight (16 h) with 10 ng/mL carrier-free recombinant human TNF-α (R&D Systems). Each perfusion assay was performed by injecting a bolus of cells for 6 min, followed by just perfusion media (without cells) for the […]. THP-1 cells were perfused at a density of 0.5 ×10^6 cells per mL. THP-1 cells treated with 10 μM TAPI-0 required a preincubation time of 10 min at 37°C before perfusion over TNF-α-activated HUVEC. Note that 10 μM TAPI-0 was also supplemented in the perfusate. Stills were acquired once every 10 seconds using 10 × objective lens.

Q: For CC(C)C[C@H](CC(=O)NO)C(=O)N[C@@H](Cc1ccc2ccccc2c1)C(=O)N[C@@H](C)C(N)=O [TAPI-0, reference compound], which “subcellular distribution of WT L-selectin clustering during TEM with sheddase inhibitor” value ([1]; 10 μM TAPI-0 pretreatment and in perfusate, WT L-selectin-GFP/RFP, 15 min perfusion) is on record?
A: a large majority of L-selectin clustering had relocated from transmigrated pseudopods to non-transmigrated uropods

Q: How did the “binding against the reference” value ([2]; reference: mouse non-phosphorylated tail peptide (NPP), sites S364) turn out when “mouse L-selectin cytoplasmic tail (from UniProt P18337) mouse pS364 tail peptide” was run?
A: lost

Q: With “L-selectin cytoplasmic tail, 356-372 (from UniProt P14151) pS364 tail peptide” as the molecule, how does the “binding against the reference” value ([2]; reference: non-phosphorylated tail peptide (NPP), sites S364) read?
A: lost

Q: For “L-selectin cytoplasmic tail, 356-372 (from UniProt P14151) pS367 tail peptide”, which “binding against the reference” value ([2]; reference: non-phosphorylated tail peptide (NPP), sites S367) is on record?
A: same

B1: SSDD: L-selectin with phospho-mimicking aspartates at Ser^364 and Ser^367 (protein)
chain: WTYHYSEKPMNWQRARRFCRDNYTDLVAIQNKAEIEYLEKTLPFSRSYYWIGIRKIGGIWTWVGTNKSLTEEAENWGDGEPNNKKNKEDCVEIYIKRNKDAGKWNDDACHKLKAALCYTASCQPWSCSGHGECVEIINNYTCNCDVGYYGPQCQFVIQCEPLEAPELGTMDCTHPLGNFSFSSQCAFSCSEGTNLTGIEETTCGPFGNWSSPEPTCQVIQCEPLSAPDLGIMNCSHPLASFSFTSACTFICSEGTELIGKKKTICESSGIWSNPSPICQKLDKSFSMIKEGDYNPLFIPVAVMVTAFSGLAFIIWLARRLKKGKKDKRDMNDPY
modifications: left off: eGFP (donor copy) or mCherry (acceptor copy, called RFP), C-terminal, kept
Q: How did the “subcellular distribution of L-selectin clustering during TEM (FLIM/FRET)” value ([1]; 15 min perfusion at 1.5 dyn/cm^2, fixed in mid-TEM, Top = non-transmigrated uropods, Base = transmigrated pseudopods, at least 45 cells, 3 experiments, no TAPI-0) turn out when B1 was run?
A: lacked any signs of clustering during TEM

B2: S364A: L-selectin with Ser^364 mutated to alanine, GFP-tagged, expressed in THP-1 cells (protein, UniProt P14151 39-372, looked up, variant S364A)
L-selectin: B1 chain with D326A, D329S
modifications: C-terminal GFP tag
Q: What does the source list for B2?
A: protrusive activity profile in TEM (in words) ([3]; 6, 15 and 25 min of flow over TNF-α-activated HUVEC): produced a profile of protrusive activity that was similar to cells expressing WT L-selectin; cells with 2 protrusions ([3]; 15 min time point, mean of 3 fields of view per flow experiment, three occasions, at least 180 cells per group, significance ** S367A p ≤ 0.01 (Tukey), % printed): 32.9%; cells with 0 protrusions ([3]; 15 min time point, mean of 3 fields of view per flow experiment, three occasions, at least 180 cells per group, significance *** S367A p ≤ 0.001, ** SSAA p ≤ 0.01 (Tukey), % printed): 11.3%
